Measured values as given in the supplement of paper PMC12042874.
± gives the uncertainty stated by the source.

Assay: amyloid nucleation score (Sup35N fusion, yeast selection) (log enrichment); library NNK1; higher = more nucleation; inactive = no reads after selection
Method in brief: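 Growth for 7 days at 30°C on medium lacking adenine and uracil followed a 24-hour induction with 100 μM copper sulfate of psi-negative yeast expressing peptides of 20 random codons fused to Sup35N. Input and output plasmid inserts were sequenced with Illumina, and sequences with under 100 input reads were excluded. Nucleation score is the DiMSum log enrichment of output over input reads, centred on the mode score of non-aggregating sequences.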

Substance	amyloid nucleation score
NDRLFLHGARKLTVLIFVVG	-0.015 ± 0.3
FLGMIFTELSINMKVSRRP	-1.12 ± 1.2
LNRHYFCVGIPYGPYSQRYL	0.51 ± 0.75
LGQEL	0.416 ± 0.39
DWGERRLSRFNGAYSVVTMV	0.599 ± 0.6
GLKMFKMCLCNMALDIF	7.428 ± 0.073
FGKGNEGTIGNI	-0.22 ± 0.76
MFLYLLVVTP	inactive
WLSETAAWENTYRCLRILHG	-0.446 ± 0.4
ALSDFGDKLSPPEDLRLEHW	1.07 ± 0.62
PTLLALYGG	-0.414 ± 0.61
DYRTCSCF	inactive
AMPYCGK	0.575 ± 0.36
LIKKKSNSIYMI	-0.062 ± 0.3
NAYLKVIYQRSFGAPNRH	-0.1 ± 0.69
YCDAYPGRKTEILVVQLF	5.6 ± 0.064
TSFYTGFWCPA	-0.232 ± 0.57
LVFCVLMW	0.532 ± 0.16
FNNPKCHSWLDRMVWLMWLA	0.343 ± 0.61
MSNIVALHCGSFFTDYECIW	7.608 ± 0.046
YRPMYMVAEQWYYK	0.896 ± 0.49
NFGIRGRRTAGLEVRCLRRC	-1.22 ± 2.7
TRHFVTVFGCVDNRVEYLNG	3.22 ± 0.1
LCFVPGS	3.73 ± 0.073
GYCLVYLAIGGFARILGYPV	-0.461 ± 1.1

Substance	amyloid nucleation score
NMVLRFQCLWFCFISIPF	3.16 ± 0.14
AFAFEYCRTSRIFCQGMEWQ	1.05 ± 0.6
GANKTWCYKSSQCVISDGLG	-0.103 ± 0.66
ILLMSSGEDYSHTGAP	-0.06 ± 0.76
YMGLYWLDRRMICMQLLWTL	2.37 ± 0.4
TLISSGNVHYMWKVTFLNNR	4.8 ± 0.063
HINFIYRLRSFLQSCKNFSS	-1.23 ± 2.1
STRSLSCLFLNRTSHCLGTL	-0.721 ± 1.4
RPKSEISSNFLVDMGFYREM	0.808 ± 0.88
MTGINYRAVRCAEGCRASRR	0.216 ± 0.29
LRFIRRYIESHITFVRKLLK	inactive
AVSSYYVERRYLNLQGANRY	3.22 ± 0.15
SVNRLTLKPSYAKYRVYSGH	0.46 ± 0.68
TRRVWLQCLMLSYMAVYISM	0.044 ± 1.1
HESYVVRIYIFEDRRYLCEV	0.037 ± 0.6
SSGAYSLSKWYQYRMFSVVL	-0.771 ± 0.66
DKELSFAKGACSKFSDSFRA	-1.45 ± 1.1
TTEYRMLGYSVEHLQDCSDR	-0.527 ± 0.54
GAFEDEVVLLTHTL	-0.447 ± 1.1
VKLAVREVTSEMPREKLTVA	0.236 ± 0.26
GYFLPGFEMLCYNRRIWYIM	-1.03 ± 0.61
NTCTMCGWICAFLRPVFCVV	0.745 ± 1.2
VVLLQLQCHEPFYSPKPQQA	-0.048 ± 0.51
DSSRSVFLWTGG	-0.994 ± 1.9
QLLPISGKVWAVISSGLG	-0.029 ± 0.32

Substance	amyloid nucleation score
VKSRYLFRCSLLFEHDTGIC	0.01 ± 0.23
NWHPISVGSFYIVGLMRHRR	4.03 ± 0.11
SILMWLNLARSLGTIYLLFV	0.046 ± 0.76
CQVPGSRRHRRSIRERQNWN	1.32 ± 0.62
GGLGRYWTTHE	0.436 ± 0.83
DSVLNGSFAACLDWDALPGQ	0.272 ± 0.54
RDAVFGPAGVLQI	-0.122 ± 1.6
NQVENTWCMSLRLFSYSHTL	7.548 ± 0.058
RMAHVKHFL	4.52 ± 0.082
NGWIMRR	-0.094 ± 1.5
RVWMGFDWIEDESRLDSTM	0.21 ± 0.82
CNMSQC	inactive
NTGIS	-1.22 ± 1.4
ALHVGLNSFPGMSRYV	0.212 ± 0.89
IWPYLGSASVL	1.73 ± 0.35
LCGHF	4.35 ± 0.051
ITYYVNFDFCQGSLARVWLC	5.01 ± 0.059
EKELIK	1.1 ± 0.61
YWCAISSVSLKFLVMSYLSG	-0.362 ± 1.1
AHTSYYTMSTSRTADGVKIS	0.028 ± 0.31
CMVSIQVVFKH	4.44 ± 0.1
FFVLFEVYMVWFTEGFARLA	-0.733 ± 0.57
CNPEGYRAHVLCFLNFA	3.63 ± 0.092
NWELRRVTRKWRSGDTSLSD	-2.04 ± 2.4
EDRYGIVC	-0.25 ± 0.74

Substance	amyloid nucleation score
QRMFFYNIIVWNVN	2.79 ± 0.14
YVLRPFGLLKWSNSVGPHER	-0.106 ± 1.2
LACTYLCWALC	-1.32 ± 0.86
SKDYVDL	inactive
FGSSMLDFNLDFDKWCE	3.66 ± 0.076
NRQSNSVVYNARQETFIRHL	3.39 ± 0.14
LSLGLSGLVQPSDGTVG	-0.284 ± 0.7
FGLCCRSRVFWRWLIKDWKD	-0.566 ± 1.9
LEGITELWRVMSYLMMTMVR	-0.457 ± 1.1
YFSKICRSLFDM	0.906 ± 1.1
GARYNASDRGEASYLIEHCG	-0.531 ± 0.99
SWWLICYYVSWYFSD	-1.69 ± 1.1
PLSWTNMKYKGSCVYFMVFF	-2.14 ± 2.4
FWLFSGLCNRFNTGYDFLKS	1.12 ± 0.48
TEYISG	-0.026 ± 0.97
GNWLSS	-0.082 ± 0.9
LCGDAPREDYSHGYVLNQVG	0.352 ± 0.78
YSRLRVCTNSAMLELGFS	1.03 ± 0.26
YFDWLGCLLTWQRKYVQT	-0.048 ± 0.93
INLTNIHFCHVNFVVGALKP	5.98 ± 0.079
GENYLGCLGSFWKTSNTCCP	-0.881 ± 1.4
NTHSPSFGFAMIRSGDTEKF	inactive
YGPSNYTIAQSS	-0.234 ± 0.43
WSRSLVLGPLEMAHTKAVQN	-0.658 ± 1.4
YVNFLGLLDCEL	-0.028 ± 0.48

Substance	amyloid nucleation score
WETVQLTGRVLFWAISYCKI	-0.178 ± 0.52
TSTVVFFKFYLTKFWISVPT	1.28 ± 0.36
MAKSGNEI	0.062 ± 0.79
EKILLG	-1.8 ± 2.4
TRLGYFNFGSLHVSLWDFML	0.6 ± 0.28
FMSYLNYRQCPPVLDEEVVP	0.241 ± 1
NMHLTYETDRFARYVNSKFN	0.744 ± 0.46
TFTVAEQVALE	0.415 ± 0.47
NSMIVAHKLDCACPASAKDR	4.94 ± 0.053
WGLLLE	4.13 ± 0.094
NSYWLRCILPM	-0.065 ± 0.3
DGSVFFKADRVPLRSSNGGI	1.2 ± 0.52
TKSTYSSTVTKRTSASCVTL	0.215 ± 1.1
KNTCKQMV	0.242 ± 0.57
DGCIKLWGF	0.779 ± 0.67
FIFPAHCSLRSIDFSQGYIR	-0.321 ± 0.36
MYREYLGRSRRQFYFGTGKH	3.82 ± 0.16
LLAGYCQSYIQLELSNSEHV	-0.241 ± 0.84
YVSCFRG	0.925 ± 0.3
NKRVHWLSGRLWIWYHWWVI	-1.5 ± 1.7
TARRKSYDIFMLIMWFVAYY	2.53 ± 0.12
QSSYVLCHFILE	-0.219 ± 1.2
CRRRPSSDELSVLWDAEGRY	0.009 ± 0.66
KVTMRWV	2.21 ± 0.27
IASFVEERLSEIPYLATLGL	-0.385 ± 0.46

Substance	amyloid nucleation score
PGFYGPLIGFMWRCSARERC	0.673 ± 0.37
ATGTSWYVPGRVGLCGYWLI	-0.153 ± 0.23
YGFRQGTTSDNGTFTRIVHM	-0.336 ± 0.5
GAFAFQKL	0.358 ± 1.1
AGYAYSGIVAGAYWIFCNYE	1.12 ± 0.85
IVSTMCPRTDGVPCDNF	-0.035 ± 0.36
CFRISARFFRVQFHGVVCIW	1.51 ± 0.25
ACARTTDIFV	-1 ± 1.1
GFECSCKYHDFTGSALCNTL	0.613 ± 0.36
NRLNTTDWYSI	-0.342 ± 0.74
EIKISSDGTVSMARGRWCQG	6.615 ± 0.05
SVKRMWYLDV	-0.483 ± 0.32
HGSECSWRLLLRHPLMGTSG	-0.089 ± 0.49
IMLNLFHYGSSLQQFKTHH	7.325 ± 0.054
PRVSRRPWLKGFNNVSNQQI	0.193 ± 1.5
VSRWSGEEPISCSYGTLR	-0.164 ± 0.6
LFFLLLNHRAVVVLLWCHFT	-1.19 ± 0.91
SSSFTSNSFLLLLWSYKDMF	1.16 ± 0.21
YFSHTSWLYFSTPFIVVVRV	0.25 ± 0.97
RKWRVCDKND	-0.491 ± 0.86
GTMTRWWFVVCTEKTAGTNR	0.374 ± 0.44
HSDSNWIVDVLHSLYDKWLV	0.913 ± 0.5
RGVHVHRFVLLAMMKFQFGS	inactive
RGLSNA	0.664 ± 0.48
STPAVDALRYCMTSIAFRKI	-1.11 ± 0.58

Substance	amyloid nucleation score
YCSKRFLVKRNFLLFYNCDF	1.03 ± 0.5
RSFVSEGYFGCWDRDTDYTD	-0.894 ± 1.2
GYRHRYQQTKGIVTHSMYFD	1.27 ± 0.9
LNICCEEYQDRYTTDNFLLL	0.583 ± 0.57
QMREFCLNACSINPRFLWAS	1.51 ± 0.31
VFGVKVRDCASANGVFGWSS	-0.14 ± 1.4
TYFWGSLIPEWWLFELYPLE	1.66 ± 0.32
VWIALFDVTDDMSARTDIWS	-0.876 ± 0.74
AIYVNGCVCCISYLVPILMS	3.61 ± 0.075
AVFLY	-0.153 ± 0.33
NLSALLHDHFMGPIDLKFLT	1.8 ± 0.52
GTTSVSAINGR	-0.545 ± 0.8
SPVLIDVRGM	-0.413 ± 0.5
LMRHYSHMFYIRHAVLLTNP	0.255 ± 0.36
VILTYGTVRY	0.38 ± 0.59
VHAHVSREIFTGQ	0.659 ± 1
DMQSEGDRGDHRGSRDCRS	0.983 ± 1
VTLQQRLCSFYMLIVEFASS	0.045 ± 0.43
GLSIQ	0.288 ± 0.44
SFEFGSSGRICVCIMFPVER	1.08 ± 0.56
AFRFHQHMACREL	4.36 ± 0.055
TYWMHCEWFSV	-1.4 ± 2.7
CLEFLG	-0.526 ± 0.49
TAYWIVYRVKGLLRFFSRLA	0.011 ± 0.36
